Experimental data published in patent publication US6361968 (US Dept. of Health and Human Services, dated 1997).

Experiments:
[1] = target: the molecule itself; experiment: CD thermal melt, homodimer, 150 mM KCl
Description: (§1) CD analyses were performed as described in Materials and Methods of D. Krylov et al., 1994, *EMBO J.,* 13:2849–2861. T_m values were calculated as described in D, Krylov et al., 1994, Ibid, converted to K_{d(25)} and $\Delta G(25)$ using a $\Delta C_p$ of –0.96 kcal/mol° C.^-1 calculated from a T_m versus $\Delta H$ plot for all of the proteins as described herein. All thermal melts were reversible.
(§2) Table 1 presents the melting temperature (T_m,° C.), $\Delta G$ and k_d at 25° C. for CD thermal melts of a variety of proteins either as homodimers or an equimolar mixture of two proteins. […] The (L) denotes 'low' salt conditions (50 mM KCl, 25 mM Tris pH 8.0, 0.5 mM EDTA, 1 mM DTT) and the (H) denotes regular salt conditions (12.5 mM potassium phosphate, pH 7.4, 150 mM KCl, 0.25 mM EDTA, and 0.5 mM DTT). The latter conditions were used in Table 2. "0heptad-F" represents the F zipper with the basic region deleted. The RMS error in $\Delta G$ is 0.2 kcal/mol and 0.5 kcal/mol for homo- and heterodimers respectively.

[2] = target: T1, C/EBP bZIP domain (GCN4-C/EBP chimeric protein) (C/EBP: rat liver; GCN4: yeast); experiment: CD thermal melt, equimolar mixture, 150 mM KCl
T1 construct: Made in E. coli; forms a homodimer; also called C/EBP-C/EBP; wild type C/EBP
T1 chain: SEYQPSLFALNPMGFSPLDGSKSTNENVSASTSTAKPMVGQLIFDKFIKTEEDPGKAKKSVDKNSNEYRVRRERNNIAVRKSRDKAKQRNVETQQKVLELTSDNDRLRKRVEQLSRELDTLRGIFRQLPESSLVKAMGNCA
Description: as §2
(§3) The two chimeras were mixed with the four different length acidic extensions appended to the F zipper and their stability was determined from CD thermal melts.

[3] = target: T2, VBP-C/EBP chimeric protein (VBP: chicken; C/EBP: rat liver); experiment: CD thermal melt, equimolar mixture, 150 mM KCl
T2 chain: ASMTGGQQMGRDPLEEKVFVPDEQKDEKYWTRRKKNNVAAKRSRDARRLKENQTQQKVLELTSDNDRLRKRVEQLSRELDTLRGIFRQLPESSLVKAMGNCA
Description: as §2, §3

[4] = target: T3, GBF-C/EBP chimeric protein (GBF: Arabidopsis thaliana; C/EBP: rat …); experiment: CD thermal melt, equimolar mixture, 150 mM KCl
T3 chain: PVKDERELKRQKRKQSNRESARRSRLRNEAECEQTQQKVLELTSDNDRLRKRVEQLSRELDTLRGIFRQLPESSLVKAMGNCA
Description: as §2, §3

[5] = target: the molecule itself; experiment: CD thermal melt, homodimer, 150 mM KCl, Kd at 25 C
Description: as §1, §2

[6] = target: T1, C/EBP bZIP domain (GCN4-C/EBP chimeric …); experiment: CD thermal melt, equimolar mixture, 150 mM KCl, Kd at 25 C
Description: as §2, §3

[7] = target: T2, VBP-C/EBP chimeric protein; experiment: as above
Description: as §2, §3

[8] = target: T3, GBF-C/EBP chimeric protein; experiment: as above
Description: as §2, §3

bZIP VBP protein = target: T4, bZIP VBP protein (chicken, UniProt Q92172 235-319, limits assumed); experiment: thermal melt of the mixture equals the sum of the two homodimer curves (FIG. 5B)
T4 sequence (looked up): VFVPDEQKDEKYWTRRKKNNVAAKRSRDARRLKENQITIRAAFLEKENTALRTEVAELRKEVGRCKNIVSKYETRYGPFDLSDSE

[9] = target: T5, 0heptadMax (dimerization domain of Max without an acidic extension) (UniProt P61244 44-113, limits assumed); experiment: heterodimer with c-Myc, dimerization study of FIG. 9
T5 construct: domain: dimerization domain; also called OheptadMax
T5 sequence (P61244 other isoform, or with tags, fused parts or gaps limits assumed): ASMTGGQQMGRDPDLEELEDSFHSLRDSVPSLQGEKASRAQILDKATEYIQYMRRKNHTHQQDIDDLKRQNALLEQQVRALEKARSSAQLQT

c-Jun (unmodified) [10] = target: T6, c-Jun (unmodified) (UniProt P05412 241-331, limits assumed); experiment: thermal melt of the mixture (FIG. 4)
T6 sequence (P05412 241-331 limits assumed): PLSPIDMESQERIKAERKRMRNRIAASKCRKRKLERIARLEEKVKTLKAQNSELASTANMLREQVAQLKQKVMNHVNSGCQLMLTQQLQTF

c-Jun (unmodified) [11] = target: T6, c-Jun (unmodified); experiment: from thermal melts of FIG. 4, Kd at 37 C
[12] = target: T1, C/EBP bZIP domain (GCN4-C/EBP chimeric …); experiment: thermal melt of the mixture equals the sum of the two homodimer curves (FIG. 5A)

B1: 3heptad-F (designed binder)
chain: ASMTGGQQMGRDPGGGLARENEELEKEAEELEQENAELEQEVLELESRNDRLRKEVEQLERELDTLRGIFRQLPESSLVKAMGNCA
notes: also called aZIP 3heptadF (CEBP specific)
deltaG at 25 C [1]: -7.9 kcal/mol | Tm [2]: 63.8 °C | deltaG at 25 C [2]: -14.3 kcal/mol | Tm [3]: 64.2 °C | deltaG at 25 C [3]: -14.7 kcal/mol | Tm [4]: 64 °C | deltaG at 25 C [4]: -14.2 kcal/mol | Kd [5]: 2000 nM | Kd [6]: 0.04 nM | Kd [7]: 0.02 nM | Kd [8]: 0.04 nM | binding result (bZIP VBP protein): no binding

B2: c-Myc bHLH protein (other)
chain: NDKRRTHNVLERQRRNELKRSFFALRDQIPELENNEKAPKVVILKKATAYILSIQADEHKLTSEKDLLRKRREQLKHKLEQLRNSGA
Kd [9]: 0.6 nM

B3: 4heptadFos (c-Fos with the basic region replaced by four acidic heptad repeats) (designed binder)
chain: MASMTGGQQMGRDPDLEQRAEELARENEELEKEAEELEQENAELEAETDQLEDEKSALQTEIANLLKEKEKLEFILAAHRPACKIP
notes: how the two entries divide the protein is not explained; also called aZIP 4heptadFos; aFos
Tm (c-Jun (unmodified) [10]): 61 °C | Kd (c-Jun (unmodified) [11]): 6 nM | binding result [12]: no binding
